12 molecules from article PMC3734085 (The Journal of Cell Biology, 2013) can be followed below.

Residue numbers refer to the chain shown, from its start. Names may count otherwise. A value given as a limit tells only on which side of the number the result lay.

The chains are these.
B1: GST-Snc2p (cytosolic domain of Snc2p, 1–92 aa, fused to GST) (domain or fragment)
chain: MSSSVPYDPYVPPEESNSGANPNSQNKTAALRQEIDDTVGIMRDNINKVAERGERLTSIEDKADNLAISAQGFKRGANRVRKQMWWKDLKMR
B2: GST-Snc2p R75A (domain or fragment)
chain: B1 chain with R75A
B3: GST-Snc2p E51R E54R (M6) (domain or fragment)
chain: B1 chain with E51R, E54R
B4: GST-Snc2p K82A (domain or fragment)
chain: B1 chain with K82A
B5: GST-Snc2p E60A D61A D64A (M3) (domain or fragment)
chain: B1 chain with E60A, D61A, D64A
B6: GST-Snc2p E51A E54A (M5) (domain or fragment)
chain: B1 chain with E51A, E54A
B7: GST-Snc2p E60K D61R D64R (M4) (domain or fragment)
chain: B1 chain with E60K, D61R, D64R
B8: His-MBP-Sec9ct (416–651 aa) (domain or fragment)
chain: ARQQQEEDEAVDEIKQEIKFTKQSSVASTRNTLKMAQDAERAGMNTLGMLGHQSEQLNNVEGNLDLMKVQNKVADEKVAELKKLNRSILAVHVSNPFNSKRRRREREEQLKNRKIEEKLMREQTSQQLSQSTQRIEGAMNANNNISEVRERYQRKNVLEKAKRYQFENDEEDDEMELEIDRNLDQIQQVSNRLKKMALTTGKELDSQQKRLNNIEESTDDLDINLHMNTNRLAGIR
B9: GST-Snc2p fragment (28–92 aa) (domain or fragment)
chain: TAALRQEIDDTVGIMRDNINKVAERGERLTSIEDKADNLAISAQGFKRGANRVRKQMWWKDLKMR
B10: Snc2p-His6, full-length Snc2p reconstituted into liposomes (natural protein)
chain: MSSSVPYDPYVPPEESNSGANPNSQNKTAALRQEIDDTVGIMRDNINKVAERGERLTSIEDKADNLAISAQGFKRGANRVRKQMWWKDLKMRMCLFLVVIILLVVIIVPIVVHFS
B11: His-tagged Sec6p (pET46-Sec6) (natural protein)
chain: MSSDPLQQVCDLIKGDLSLERVRDIKEQLLKEKSVVEYQLNKESDKYYGEVEESLKLLNLSKNSVTSIKQQINEVNKLGNDNRFAINRYDILFRATKLYETVNTTSSIYDRIYNFVALMEHIERLLVAELAEDALETGCPHLLEIHFLLTSARDFQEQVVVMAKEATEDAQRTVMKLFSRLSGIISKFDKLLDGLTYDIVEMARAEQISLAIRLFKIYDLEEREDLRIEAIRNIIKKKEIEIEKSSIKKLPNSKNTARLQDETPKVIEYPTNKGLYQEIMSGTISTRTAPRGYKHFLINGINNSISEMFGEMREKYVGDQKFDVLDNMDWIFNELIIVKEHIANCCPPHWNIFEVYFDQYYKELHSLITDLVESEPETIIILDILAFDKTFQDTLKQDFGFTKSEVKSVIGDKEKETLFKDYLNLIVVKMTEWIGNLEKAEFDVFLERSTPPHSDSDGLLFLDGTKTCFQMFTQQVEVAAGTNQAKILVGVVERFSDLLTKRQKNWISKISEEIKKQINYNHKYDIDPESITPEDECPGGLVEYLIAVSNDQMKAADYAVAISSKYGKLVSKVYEKQITNHLEGTLDGFAEVAQCSSLGLITLMFDDLRKPYQEIFSKTWYMGSQAQQIADTLDEYLLDIKPQMNSVLFVNFIDNVIGETIIKFLTALSFEHSFKNKNNKFLEAMKRDFEIFYQLFVKVLDGNESKDTLITQNFTVMEFFMDLSCEPIDSILDIWQKYLEVYWDSRIDLLVGILKCRKDVSSSERKKIVQQATEMLHEYRRNMEANGVDREPTLMRRFVLEFEKQ

As a reminder, the Kd is the concentration at which binding is half-saturated. The low end stands for tighter binding, the high end for weaker binding.

In one experiment the target is B11. The experiment in a line: pull-down.
B1: the Kd is 13 ± 6 µM.

Regarding B2, the binding result is reported as “binds”.

B3: the binding result is on record as “binds”.

As to B4, the binding result is “binds”.

In the case of B5, the binding result is given as “binds”.

As for B6, the binding result was “binds”.

With B7, the binding result is “binds”.

With B8, the binding result is on record as “binds”.

For the molecule B9, the binding result was “binds”.

The molecule GERLTSIEDKADNLAISAQGFKRGANRVRKQMWWKDLKMR (domain or fragment) [GST-Snc2p fragment (53–92 aa)] returned a Kd of 18 µM. That is a double-digit micromolar value.

The next experiment has as its target B11. As to the kind of experiment: […], pH 7.4, 0.5 µg/µl BSA.
For B10, the binding result is “binds”.

A further experiment deals with T1, Snc2p-M2-His6 (R75E R79E K82E) reconstituted into liposomes (S. cerevisiae, UniProt P33328 1-115, R75E | R79E | K82E).
T1 sequence: B10 chain with R75E, R79E, K82E
The experiment in a line: […], pH 7.4, 0.5 µg/µl BSA.
Take B11: the “fold reduction in binding against wild-type Snc2p liposomes” value is not below 2 fold.
